Results on 34 variants are retold here after the Human Domainome abundance scans (Beltran et al. 2025).

± gives the uncertainty stated by the source.

First the molecules themselves.
B1: Peripheral plasma membrane protein CASK, residues 488 to 569; numbered along this chain, O14936 (parent)
chain: VRLVQFQKNTDEPMGITLKMNELNHCIVARIMHGGMIHRQGTLHVGDEIREINGISVANQTVEQLQKMLREMRGSITFKIVP

The data set covers variants of B1. Description: abundance fitness (aPCA) (normalised: wild type 0, dead -1); higher = more abundant; growth selection in yeast, the domain comes from the species named. To be noted: Homo sapiens.
For the variant VRLVQFQKNTDEPMGITLKMNELNHCIVARIMHGGMIHRQKTLHVGDEIREINGISVANQTVEQLQKMLREMRGSITFKIVP, the abundance fitness was -0.1 ± 0.032.

In the case of VRLVQFQKNTDEPMGITLKMNELNHCIVARIMHGGMIHRQYTLHVGDEIREINGISVANQTVEQLQKMLREMRGSITFKIVP, the abundance fitness is -0.639 ± 0.08. For VRLVQFQKNTDEPMGITLKMNELNHCIVARIMHGGMIHRQWTLHVGDEIREINGISVANQTVEQLQKMLREMRGSITFKIVP, the abundance fitness is -0.829 ± 0.048.

On to VRLVQFQKNTDEPMGITLKMNELNHCIVARIMHGGMIHRQDTLHVGDEIREINGISVANQTVEQLQKMLREMRGSITFKIVP, for which the abundance fitness was -0.065 ± 0.033. With VRLVQFQKNTDEPMGITLKMNELNHCIVARIMHGGMIHRQCTLHVGDEIREINGISVANQTVEQLQKMLREMRGSITFKIVP the figure was -0.137 ± 0.031; with VRLVQFQKNTDEPMGITLKMNELNHCIVARIMHGGMIHRQHTLHVGDEIREINGISVANQTVEQLQKMLREMRGSITFKIVP, -0.07 ± 0.043; with VRLVQFQKNTDEPMGITLKMNELNHCIVARIMHGGMIHRQNTLHVGDEIREINGISVANQTVEQLQKMLREMRGSITFKIVP, -0.072 ± 0.039.

As for VRLVQFQKNTDEPMGITLKMNELNHCIVARIMHGGMIHRQVTLHVGDEIREINGISVANQTVEQLQKMLREMRGSITFKIVP, the abundance fitness was -0.288 ± 0.025. For the variant VRLVQFQKNTDEPMGITLKMNELNHCIVARIMHGGMIHRQMTLHVGDEIREINGISVANQTVEQLQKMLREMRGSITFKIVP, the abundance fitness is -0.233 ± 0.036.

For the variant VRLVQFQKNTDEPMGITLKMNELNHCIVARIMHGGMIHRQPTLHVGDEIREINGISVANQTVEQLQKMLREMRGSITFKIVP, the abundance fitness is -0.541 ± 0.047. The figure for VRLVQFQKNTDEPMGITLKMNELNHCIVARIMHGGMIHRQFTLHVGDEIREINGISVANQTVEQLQKMLREMRGSITFKIVP is -0.618 ± 0.061; for VRLVQFQKNTDEPMGITLKMNELNHCIVARIMHGGMIHRQQTLHVGDEIREINGISVANQTVEQLQKMLREMRGSITFKIVP it is -0.113 ± 0.034.

For VRLVQFQKNTDEPMGITLKMNELNHCIVARIMHGGMIHRQITLHVGDEIREINGISVANQTVEQLQKMLREMRGSITFKIVP, the abundance fitness was -0.55 ± 0.069. VRLVQFQKNTDEPMGITLKMNELNHCIVARIMHGGMIHRQATLHVGDEIREINGISVANQTVEQLQKMLREMRGSITFKIVP: the abundance fitness is -0.083 ± 0.024. As for VRLVQFQKNTDEPMGITLKMNELNHCIVARIMHGGMIHRQSTLHVGDEIREINGISVANQTVEQLQKMLREMRGSITFKIVP, the abundance fitness was -0.098 ± 0.025. Take VRLVQFQKNTDEPMGITLKMNELNHCIVARIMHGGMIHRQETLHVGDEIREINGISVANQTVEQLQKMLREMRGSITFKIVP: the abundance fitness is -0.1 ± 0.028. Regarding VRLVQFQKNTDEPMGITLKMNELNHCIVARIMHGGMIHRQTTLHVGDEIREINGISVANQTVEQLQKMLREMRGSITFKIVP, the abundance fitness was -0.033 ± 0.03. Regarding VRLVQFQKNTDEPMGITLKMNELNHCIVARIMHGGMIHRQLTLHVGDEIREINGISVANQTVEQLQKMLREMRGSITFKIVP, the abundance fitness was -0.424 ± 0.029.

Consider VRLVQFQKNTDEPMGITLKMNELNHCIVARIMHGGMIHRQRTLHVGDEIREINGISVANQTVEQLQKMLREMRGSITFKIVP, for which the abundance fitness is -0.127 ± 0.021. The figure for VRLVQFQKNTDEPMGITLKMNELNHCIVARIMHGGMIHRTGTLHVGDEIREINGISVANQTVEQLQKMLREMRGSITFKIVP is -0.067 ± 0.026; for VRLVQFQKNTDEPMGITLKMNELNHCIVARIMHGGMIHRVGTLHVGDEIREINGISVANQTVEQLQKMLREMRGSITFKIVP it is -0.065 ± 0.021. On to VRLVQFQKNTDEPMGITLKMNELNHCIVARIMHGGMIHRQGALHVGDEIREINGISVANQTVEQLQKMLREMRGSITFKIVP, for which the abundance fitness was 0.005 ± 0.024. Take VRLVQFQKNTDEPMGITLKMNELNHCIVARIMHGGMIHRQGCLHVGDEIREINGISVANQTVEQLQKMLREMRGSITFKIVP: the abundance fitness was -0.025 ± 0.031.

VRLVQFQKNTDEPMGITLKMNELNHCIVARIMHGGMIHRQGDLHVGDEIREINGISVANQTVEQLQKMLREMRGSITFKIVP: the abundance fitness was -0.007 ± 0.032. With VRLVQFQKNTDEPMGITLKMNELNHCIVARIMHGGMIHRQGFLHVGDEIREINGISVANQTVEQLQKMLREMRGSITFKIVP the figure was -0.021 ± 0.037; with VRLVQFQKNTDEPMGITLKMNELNHCIVARIMHGGMIHRQGPLHVGDEIREINGISVANQTVEQLQKMLREMRGSITFKIVP, -0.336 ± 0.033. The figure for VRLVQFQKNTDEPMGITLKMNELNHCIVARIMHGGMIHRQGNLHVGDEIREINGISVANQTVEQLQKMLREMRGSITFKIVP is -0.039 ± 0.046; for VRLVQFQKNTDEPMGITLKMNELNHCIVARIMHGGMIHRQGKLHVGDEIREINGISVANQTVEQLQKMLREMRGSITFKIVP it is 0.025 ± 0.031; for VRLVQFQKNTDEPMGITLKMNELNHCIVARIMHGGMIHRQGQLHVGDEIREINGISVANQTVEQLQKMLREMRGSITFKIVP it is 0.003 ± 0.031. VRLVQFQKNTDEPMGITLKMNELNHCIVARIMHGGMIHRQGMLHVGDEIREINGISVANQTVEQLQKMLREMRGSITFKIVP: the abundance fitness is 0.01 ± 0.032. Turning to VRLVQFQKNTDEPMGITLKMNELNHCIVARIMHGGMIHRQGHLHVGDEIREINGISVANQTVEQLQKMLREMRGSITFKIVP, the abundance fitness was -0.065 ± 0.045. With VRLVQFQKNTDEPMGITLKMNELNHCIVARIMHGGMIHRQGLLHVGDEIREINGISVANQTVEQLQKMLREMRGSITFKIVP the figure was -0.003 ± 0.024; with VRLVQFQKNTDEPMGITLKMNELNHCIVARIMHGGMIHRQGGLHVGDEIREINGISVANQTVEQLQKMLREMRGSITFKIVP, 0.005 ± 0.02; with VRLVQFQKNTDEPMGITLKMNELNHCIVARIMHGGMIHRQGELHVGDEIREINGISVANQTVEQLQKMLREMRGSITFKIVP, 0.012 ± 0.026.
